{"source": "patent US7393670B2", "about": "“Tyrosyl-tRNA synthetase variants” (Japan Science and Technology Agency, priority 2001, dated 2008)", "molecules": {"B1": {"name": "VN: E. coli TyrRS double variant: position 37 Valine, position 195 Asparagine (protein, UniProt P0AGJ9 2-424, looked up, variant Y37V Q195N)", "Tyrosine--tRNA ligase": "ASSNLIKQLQERGLVAQVTDEEALAERLAQGPIALVCGFDPTADSLHLGHLVPLLCLKRFQQAGHKPVALVGGATGLIGDPSFKAAERKLNTEETVQEWVDKIRKQVAPFLDFDCGENSAIAANNYDWFGNMNVLTFLRDIGKHFSVNQMINKEAVKQRLNREDQGISFTEFSYNLLQGYDFACLNKQYGVVLNIGGSDQWGNITSGIDLTRRLHQNQVFGLTVPLITKADGTKFGKTEGGAVWLDPKKTSPYKFYQFWINTADADVYRFLKFFTFMSIEEINALEEEDKNSGKAPRAQYVLAEQVTRLVHGEEGLQAAKRITECLFSGSLSALSEADFEQLAQDGVPMVEMEKGADLMQALVDSELQPSRGQARKTIASNAITINGEKQSDPEYFFKEEDRLFGRFTLLRRGKKNYCLICWK"}, "B2": {"name": "VS: E. coli TyrRS double variant: position 37 Valine, position 195 Serine (protein, UniProt P0AGJ9 2-424, looked up, variant Y37V Q195S)", "Tyrosine--tRNA ligase": "B1 Tyrosine--tRNA ligase with N194S"}, "B3": {"name": "AC: E. coli TyrRS double variant: position 37 Alanine, position 195 Cysteine (protein, UniProt P0AGJ9 2-424, looked up, variant Y37A Q195C)", "Tyrosine--tRNA ligase": "B1 Tyrosine--tRNA ligase with V36A, N194C"}, "B4": {"name": "37V: E. coli TyrRS variant: position 37 Valine, position 195 Glutamine (protein, UniProt P0AGJ9 2-424, looked up, variant Y37V)", "Tyrosine--tRNA ligase": "B1 Tyrosine--tRNA ligase with N194Q"}, "B5": {"name": "VA: E. coli TyrRS double variant: position 37 Valine, position 195 Alanine (protein, UniProt P0AGJ9 2-424, looked up, variant Y37V Q195A)", "Tyrosine--tRNA ligase": "B1 Tyrosine--tRNA ligase with N194A"}, "B6": {"name": "IA: E. coli TyrRS double variant: position 37 Isoleucine, position 195 Alanine (protein, UniProt P0AGJ9 2-424, looked up, variant Y37I Q195A)", "Tyrosine--tRNA ligase": "B1 Tyrosine--tRNA ligase with V36I, N194A"}, "B7": {"name": "AS: E. coli TyrRS double variant: position 37 Alanine, position 195 Serine (protein, UniProt P0AGJ9 2-424, looked up, variant Y37A Q195S)", "Tyrosine--tRNA ligase": "B1 Tyrosine--tRNA ligase with V36A, N194S"}, "B8": {"name": "LC: E. coli TyrRS double variant: position 37 Leucine, position 195 Cysteine (protein, UniProt P0AGJ9 2-424, looked up, variant Y37L Q195C)", "Tyrosine--tRNA ligase": "B1 Tyrosine--tRNA ligase with V36L, N194C"}}, "note": "Numbering of substitutions follows the chain as printed."}
{"experiment": "Aminoacylation activity by Lloyd's method (release of pyrophosphates)", "type": "biochemical", "settings": "3-iodotyrosine versus tyrosine, from Table 4", "description": "(§1) In the second method, Lloyd's method (Nucleic Acids Research, 23:2886-2892, 1995) was carried out without alteration.\n(§2) In the second method, the activity was assayed by Lloyd's method (Nucleic Acids Research, 23:2886-2892, 1995). Each enzyme obtained was incubated with 0.4 ml of the buffer B containing 1 mM ATP (Seikagaku Corporation), 100 μM purified crude tyrosyl-tRNA, 200 μM tyrosine or 3-iodotyrosine at 37° C. for 6 min. The aminoacylation activity was represented as concentrations of released phosphate per min."}
{"molecule": "B1", "relative tyrosine analogue to tyrosine ratio": "inferior to VC"}
{"molecule": "B2", "relative tyrosine analogue to tyrosine ratio": "inferior to VC"}
{"molecule": "B3", "relative tyrosine analogue to tyrosine ratio": "inferior to VC"}
{"experiment": "Aminoacylation activity by Lloyd's method (release of pyrophosphates)", "type": "biochemical", "settings": "at 37° C.; 200 μM 3-iodotyrosine", "description": "as §1, §2", "units": {"Initial velocity of release of pyrophosphates, 3-iodotyrosine": "nM PPi/min/nM enzyme"}}
{"molecule": "B1", "Initial velocity of release of pyrophosphates, 3-iodotyrosine": 6.9}
{"molecule": "B2", "Initial velocity of release of pyrophosphates, 3-iodotyrosine": 18}
{"molecule": "B4", "Initial velocity of release of pyrophosphates, 3-iodotyrosine": 73}
{"molecule": "B3", "Initial velocity of release of pyrophosphates, 3-iodotyrosine": 3.1}
{"molecule": "B5", "Initial velocity of release of pyrophosphates, 3-iodotyrosine": 6.6}
{"experiment": "Aminoacylation activity by Lloyd's method (release of pyrophosphates)", "type": "biochemical", "settings": "at 37° C.; 200 μM tyrosine", "description": "as §1, §2", "units": {"Initial velocity of release of pyrophosphates, Tyrosine": "nM PPi/min/nM enzyme"}}
{"molecule": "B1", "Initial velocity of release of pyrophosphates, Tyrosine": 2.1}
{"molecule": "B2", "Initial velocity of release of pyrophosphates, Tyrosine": 19}
{"molecule": "B4", "Initial velocity of release of pyrophosphates, Tyrosine": 140}
{"molecule": "B3", "Initial velocity of release of pyrophosphates, Tyrosine": 1.0}
{"molecule": "B5", "Initial velocity of release of pyrophosphates, Tyrosine": 3.7}
{"experiment": "Aminoacylation reaction, simplified Lloyd's method, inorganic phosphate detected with Biomol green", "type": "biochemical", "parameters": "key: ***: the aminoacylation reaction was detected by a microplate reader in the reaction at enzyme concentrations of 50 nM; **: 500 nM; *: 5 μM; the activity is high in the order of *** > ** > * > —", "settings": "Table 2; tyrosine 200 μM; 37° C. for 4 min", "description": "(§3) In the first method, Lloyd's method (Nucleic Acids Research, 23:2886-2892, 1995) where inorganic phosphate produced by pyrophosphatase-drived hydrolysis of pyrophosphate which was one of the reaction products of the aminoacylation reactions was quantified was simplified, and the inorganic phosphate was detected using Biomol green (Funakoshi) to carry out the measurement of the aminoacylation reaction.\n(§4) Amino acid concentrations were 200 μM and 1 mM for tyrosine and 3-iodotyrosine, respectively.\n(§5) The method where the aminoacylation reaction is measured by quantifying inorganic phosphate produced by pyrophosphatase-drived hydrolysis of pyrophosphate which is one of reaction products of the aminoacylation has been described by Lloyd et al. (Nucleic Acids Research, 23:2886-2892, 1995). In one method of the invention, this method was simplified and the aminoacylation reaction was measured by the detection of inorganic phosphate using Biomol green (Funakoshi). […] To stop the reaction, 0.1 ml of Bio mol green was added. Absorbance of its supernatant was measured at 630 nm."}
{"molecule": "B4", "Aminoacylation activity, Tyrosine": "***"}
{"experiment": "Aminoacylation reaction, simplified Lloyd's method, inorganic phosphate detected with Biomol green", "type": "biochemical", "parameters": "key: ***: the aminoacylation reaction was detected by a microplate reader in the reaction at enzyme concentrations of 50 nM; **: 500 nM; *: 5 μM; the activity is high in the order of *** > ** > * > —", "settings": "Table 3; tyrosine 200 μM; 37° C. for 4 min", "description": "as §3, §4, §5"}
{"molecule": "B1", "Aminoacylation activity, Tyrosine": "—"}
{"experiment": "Aminoacylation reaction, simplified Lloyd's method, inorganic phosphate detected with Biomol green", "type": "biochemical", "parameters": "key: ***: the reaction could be detected strongly at 25 nM; **: strongly at 250 nM; *: weakly at 250 nM; the activity is high in the order of *** > ** > * > —", "settings": "Table 3; tyrosine 200 μM; 37° C. for 4 min", "remark": "another data set of the same source", "description": "as §3, §4, §5"}
{"molecule": "B6", "Aminoacylation activity, Tyrosine": "*"}
{"molecule": "B7", "Aminoacylation activity, Tyrosine": "*"}
{"molecule": "B8", "Aminoacylation activity, Tyrosine": "*"}
{"molecule": "B2", "Aminoacylation activity, Tyrosine": "**"}
{"molecule": "B4", "Aminoacylation activity, Tyrosine": "***"}
{"molecule": "B3", "Aminoacylation activity, Tyrosine": "*"}
{"molecule": "B5", "Aminoacylation activity, Tyrosine": "*"}
{"experiment": "Aminoacylation reaction, simplified Lloyd's method, inorganic phosphate detected with Biomol green", "type": "biochemical", "parameters": "key: ***: the aminoacylation reaction was detected by a microplate reader in the reaction at enzyme concentrations of 50 nM; **: 500 nM; *: 5 μM; the activity is high in the order of *** > ** > * > —", "settings": "Table 2; 3-iodotyrosine 1 mM; 37° C. for 4 min", "description": "as §3, §4\n(§6) The method where the aminoacylation reaction is measured by quantifying inorganic phosphate produced by pyrophosphatase-drived hydrolysis of pyrophosphate which is one of reaction products of the aminoacylation has been described by Lloyd et al. (Nucleic Acids Research, 23:2886-2892, 1995). In one method of the invention, this method was simplified and the aminoacylation reaction was measured by the detection of inorganic phosphate using Biomol green (Funakoshi). Each enzyme obtained was incubated with 0.05 ml of the buffer B containing 1 mM ATP (Seikagaku Corporation), 30 μM purified crude tyrosyl-tRNA, and 100 μM tyrosine or 0.5 mM 3-iodotyrosine at 37° C. for one hour. To stop the reaction, 0.1 ml of Bio mol green was added. Absorbance of its supernatant was measured at 630 nm."}
{"molecule": "B4", "Aminoacylation activity, 3-iodotyrosine": "***"}
{"experiment": "Aminoacylation reaction, simplified Lloyd's method, inorganic phosphate detected with Biomol green", "type": "biochemical", "parameters": "key: ***: the reaction could be detected strongly at 25 nM; **: strongly at 250 nM; *: weakly at 250 nM; the activity is high in the order of *** > ** > * > —", "settings": "Table 3; 3-iodotyrosine 1 mM; 37° C. for 4 min", "description": "as §3, §4, §6"}
{"molecule": "B1", "Aminoacylation activity, 3-iodotyrosine": "**"}
{"molecule": "B6", "Aminoacylation activity, 3-iodotyrosine": "*"}
{"molecule": "B7", "Aminoacylation activity, 3-iodotyrosine": "*"}
{"molecule": "B8", "Aminoacylation activity, 3-iodotyrosine": "*"}
{"molecule": "B2", "Aminoacylation activity, 3-iodotyrosine": "**"}
{"molecule": "B4", "Aminoacylation activity, 3-iodotyrosine": "***"}
{"molecule": "B3", "Aminoacylation activity, 3-iodotyrosine": "**"}
{"molecule": "B5", "Aminoacylation activity, 3-iodotyrosine": "**"}
